According to patent publication US20090246142A1 (published 2009):
Square brackets hold non-standard residues; d marks the D form. pY = N[C@@H](Cc1ccc(OP(=O)(O)O)cc1)C(=O)O; Ahx = NCCCCCC(=O)O

B1: TAMRA-(Ahx)SRVGEEEHVFSFPNKQKSAEC-CONH2 (Abl substrate with the tyrosine replaced by phenylalanine) on nanoparticles (F-Abl TSACs) (peptide)
peptide: {TAMRA-Ahx}-SRVGEEEHVFSFPNKQKSAEC-NH2
modifications: not fully specified (residue 21); printed as TAMRA-(Ahx)SRVGEEEHVFSFPNKQKSAEC-CONH2; also: Cys conjugated to nanoparticle via NHS-PEO12-maleimide
notes: also called phenylalanine-Abl substrate TSACs; phenylalanine substrate TSACs
B2: TAMRA-(Ahx)EAIpYAAPFAKKKC-CONH2 (non-binding Abl substrate, phosphorylated) on nanoparticles (peptide)
peptide: {TAMRA-Ahx}-EAI[pY]AAPFAKKKC-NH2
modifications: not fully specified (residue 13); also: Cys conjugated to nanoparticle via NHS-PEO12-maleimide

Experiments:
[1] = molecular target: T1, Crk SH2 domain with an N-terminal cysteine (cys-SH2), conjugated to iron oxide nanoparticles (SH2 TSACs) (UniProt P46108 13-118, limits assumed, N-terminal cysteine added by genetic modification and conjugated to aminated nanoparticles through NHS-PEO12-maleimide); experiment: DLS of nanoparticle assembly in the presence of Abl kinase
T1 construct: domain: SH2 domain; also called cysteine-SH2; Crk-SH2 TSACs
T1 sequence (P46108 13-118 limits assumed): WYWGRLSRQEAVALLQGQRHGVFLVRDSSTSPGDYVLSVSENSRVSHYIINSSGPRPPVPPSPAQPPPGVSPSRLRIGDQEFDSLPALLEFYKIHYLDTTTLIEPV

[2] = molecular target: T1, Crk SH2 domain with an N-terminal …; experiment: DLS of nanoparticle assembly

Binder | binding result [1] | binding result [2]
B1 | no binding (tested: 10 µg Fe/ml (12 nM TSAC concentration)) | 
B2 |  | no binding (tested: 10 µg Fe/ml (12 nM TSAC concentration))
